Assay: yeast display, Sf9 membrane polyspecificity reagent, FACS + sequencing; frameworks hold sequencing errors
Procedure, shortened: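 In a synthetic yeast display library (Saccharomyces cerevisiae BJ5465), nanobody expression was induced with galactose for 36–48 hours. FACS gates were set low and high (top ~1%) using anti-HA fluorescence for expression and streptavidin fluorescence for binding of the Sf9 membrane reagent. Each polyreactivity label is drawn from the gate of origin.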

Q: For “QVQLVESGGGLVQAGGSLRLSCAASGRIFGLYTMGWYRQAPGKERELVAAITSRGGRTYYADSVKGRFTLSRDNAKNSVYLQMNSLKPEDTAVYYCAAGGYWSLKYDYWGQGTQVTVSS”, which “polyreactivity (PSR sort gate)” value is on record?
A: high polyreactivity

Q: Which “polyreactivity (PSR sort gate)” value does the source give for “QVQLVESGGGLVQAGGSLRLSCAASGRIFGNNVMGWYRQAPGKERELVASINYSGRTYYADSVKGRFTISRDNAKNTVYLQMNSLKPEDTAVYYCAARRYAWFYPYVTYDYWGQGTQVNVSS” here?
A: high polyreactivity

Q: For “QVQLVESGGGLVQAGGSLRLSCAASGRIFGNNVMGWYRQEPGKERELVAAITFSGTSTYYADSVKGRFTISRDNAKNTVYLQMNSLKPEDTAVYYCAKYRYADYYSPGYDYWGQGTQVTVSS”, which “polyreactivity (PSR sort gate)” value is on record?
A: low polyreactivity

Q: With “QVQLVESGGGLVQAGGSLRLSCAASGRIFGNYAMGWYRQAPGKERELVAAISNGSGRTSYADSVKGRFTISRDNAKNTVYLQMNSLKPEDTAVYYCAVLRPKSRKHTVGFCYWGQGTQVTVSS” as the sequence, how does the “polyreactivity (PSR sort gate)” value read?
A: high polyreactivity

Q: Which “polyreactivity (PSR sort gate)” value does the source give for “QVQLVESGGGLVQAGGSLRLSCAASGRIFGPYAMGWYRHAPGKERELVAAISSSGSTTYYADSVKGRFTISRDNAKNTVYLQMNSLKPEDTAVYYCAKPSSRDSPYDYWGQGTQVTVSS” here?
A: low polyreactivity

Q: With “QVQLVESGGGLVQAGGSLRLSCAASGRIFGPYAMGWYRPATGKERELVAAISSRGSSTYYADSVKGRFTISRDNAKNTVYLQMNSLKPEDTAVYYCAARDYLAYYWGPSLYTFDYWGQGTEVTVSS” as the sequence, how does the “polyreactivity (PSR sort gate)” value read?
A: high polyreactivity

Q: For “QVQLVESGGGLVQAGGSLRLSCAASGRIFGPYAMGWYRQAPGKERELVAAISGRGSSTYYADSVKGRFTISRDNAKNTVYLQMNSLKPEDTAVYYCAKYPTYSYDYWGQGTQVTVSS”, which “polyreactivity (PSR sort gate)” value is on record?
A: high polyreactivity

Q: With “QVQLVESGGGLVQAGGSLRLSCAASGRIFGPYAMGWYRQAPGKERELVAASSTDYADSVKGRFTISRDNAKNTVYLQMNSLKPEDTAVYYCAKVGFGIPGGFYYWGQGTQVTVSS” as the sequence, how does the “polyreactivity (PSR sort gate)” value read?
A: low polyreactivity

Q: With “QVQLVESGGGLVQAGGSLRLSCAASGRIFGPYTMGWYIQAPGKEREFVAAITRRGGTTYYADSVKGRFTISRDNAKNTVYLQMNSLKAEDTGVYYCDAVGQKRSLGYSWGQGTQVTVSS” as the sequence, how does the “polyreactivity (PSR sort gate)” value read?
A: low polyreactivity

Q: Which “polyreactivity (PSR sort gate)” value does the source give for “QVQLVESGGGLVQAGGSLRLSCAASGRIFGPYVMGWYIQAPGKERELVAAISTSGTSTYYADSVKGRFTISRDNANNTVYLQMNSLKPEDTAVFYFAKRSGARHRLMDYWGQGTQVTVSS” here?
A: low polyreactivity

Q: For “QVQLVESGGGLVQAGGSLRLSCAASGRIFGQNAMGWYRQAPGKERELVAAITWNGGRTYYADSVKGRFTISRDNAKNTVYLQMNSLKPEDTAVYYCNADGKHRLRDYWGQGTQVTVSS”, which “polyreactivity (PSR sort gate)” value is on record?
A: high polyreactivity

Q: With “QVQLVESGGGLVQAGGSLRLSCAASGRIFGQNVIGWYRQAPGIERELVAAITSAGRTYYADSVKGRFTISRDNAKNPVYLQMNSLKPEDTAVYYCAAQYPINYFTGYGYWGQGTQVTVSS” as the sequence, how does the “polyreactivity (PSR sort gate)” value read?
A: high polyreactivity

Q: Which “polyreactivity (PSR sort gate)” value does the source give for “QVQLVESGGGLVQAGGSLRLSCAASGRIFGQYAMGWYRQAPGKERELVAAITYSTGSTSYADSVKGRFTISRDNAKNTVYLQMNSLKPEDTAVYYCAAGGGRWYYPKRGSPYGFYYWGLGTQVTVSS” here?
A: high polyreactivity

Q: Which “polyreactivity (PSR sort gate)” value does the source give for “QVQLVESGGGLVQAGGSLRLSCAASGRIFGRNAMGWYRQAPGKERELVAAIRLSGGSTYYADSVKGRFTISRDNAKNTVYLQMNSLKPEDTAVYYCATRPVANGRKYDYWGQGTQVTVSS” here?
A: high polyreactivity

Q: With “QVQLVESGGGLVQAGGSLRLSCAASGRIFGRNTMGWYRQAAGKERELVASITFGGVSTYYADSVKGRFTISRDTEKNTVYLQMNSLKPEDTEVYYCAAVLINYEGYDSWGQGTQVTVSS” as the sequence, how does the “polyreactivity (PSR sort gate)” value read?
A: low polyreactivity

Q: Which “polyreactivity (PSR sort gate)” value does the source give for “QVQLVESGGGLVQAGGSLRLSCAASGRIFGRYAMGWSRQAPGKERELVASISKRGGSTYYADSVKGRFTISRDNAKNTVYLQMNSLKPEDTAVYYCAALFLSHIYYYWGQGTQVTVSS” here?
A: high polyreactivity

Q: Which “polyreactivity (PSR sort gate)” value does the source give for “QVQLVESGGGLVQAGGSLRLSCAASGRIFGRYAMGWYIQAPGKERELVAAISRRGVSTTYADSVKGRFTISRDNAKNTVYLQMNSLKPEDTAVYYCAAVRYGYSSTRDYLGQGTQVTVSS” here?
A: high polyreactivity

Q: With “QVQLVESGGGLVQAGGSLRLSCAASGRIFGRYAMGWYRQAPGKERELVAAISVSGGSTYYADSVKGRFTISRDNAKNTVYLQMNSLKPEDTAVYYCATEWRPRYYGTEPFDSWGQGTQVTVSS” as the sequence, how does the “polyreactivity (PSR sort gate)” value read?
A: high polyreactivity

Q: With “QVQLVESGGGLVQAGGSLRLSCAASGRIFGRYAMGWYRQAPGKERELVADITYRTGRTYYADSVKGRFTISRDNAKNTVYLQMNSMKPEDTAVYYCAAESTSDPIDFEYWGQGTQVTVSS” as the sequence, how does the “polyreactivity (PSR sort gate)” value read?
A: low polyreactivity

Q: With “QVQLVESGGGLVQAGGSLRLSCAASGRIFGRYAMGWYRQAPGKERELVATITSGGSTYYADSVKGRFTISRDNAKNTDYLQMNSLKPEDTAVYFCAAVHRGYFLAFYYWGQGTQVTVSS” as the sequence, how does the “polyreactivity (PSR sort gate)” value read?
A: high polyreactivity

Q: With “QVQLVESGGGLVQAGGSLRLSCAASGRIFGRYTMGWYRQAPGKGRELDAAISDSGDSTYADSVKGRFTISRDNAKNSVYFQMNSLKPEDTAVYFCNAQSGSFAGHEYDYWGQGTQLTVSS” as the sequence, how does the “polyreactivity (PSR sort gate)” value read?
A: low polyreactivity

Q: With “QVQLVESGGGLVQAGGSLRLSCAASGRIFGRYVMGWYRQAPGKERELVAVISRRSGNTYYADSVKGRFTISRDYAKNTVYLQMNSLKPEDTAVLYCAARYYYSKSDRYDYWGEGTQVTVSS” as the sequence, how does the “polyreactivity (PSR sort gate)” value read?
A: high polyreactivity

Q: For “QVQLVESGGGLVQAGGSLRLSCAASGRIFGSYAMGWYRPAPGKERELVAAINRSGGSTRYADSVKGRFTISRDNAKNTVYLQMNSLKPEDTAVYYCAAPSYARYYAYDSWGQGTQVTVSS”, which “polyreactivity (PSR sort gate)” value is on record?
A: high polyreactivity

Q: Which “polyreactivity (PSR sort gate)” value does the source give for “QVQLVESGGGLVQAGGSLRLSCAASGRIFGSYAMGWYRQAPGKERELVAAISGSGSRTYYADSVKGRFTISRDNAKNTVYLQMNSLKPEDTAVYYCNKYRFRVYPFGYWGQGTQVTVSS” here?
A: high polyreactivity

Q: Which “polyreactivity (PSR sort gate)” value does the source give for “QVQLVESGGGLVQAGGSLRLSCAASGRIFGSYAMGWYRQAPGKERELVAAISWRGTSTYYADSVKRRFTISRDNAKKTVYLQMNSLKPEDTAVYYCAARGLWPYDYWGQGTQVTVSS” here?
A: low polyreactivity

Q: With “QVQLVESGGGLVQAGGSLRLSCAASGRIFGSYAMGWYRQAPGKERELVAAISWSGGRTYYADSVKGRFTISRDNAKNTVYLQMNSLKPEDTAVYYCNALVFGRYRDMDYWGQGTQVTVSS” as the sequence, how does the “polyreactivity (PSR sort gate)” value read?
A: high polyreactivity

Q: Which “polyreactivity (PSR sort gate)” value does the source give for “QVQLVESGGGLVQAGGSLRLSCAASGRIFGSYAMGWYRQAPGKERELVAAITTDDSTNYADSVKGRFTISRDNAKNTVYLQMNSLKPEDTAVYYCNAERWDELFDSWGQGTQVTVSS” here?
A: low polyreactivity

Q: Which “polyreactivity (PSR sort gate)” value does the source give for “QVQLVESGGGLVQAGGSLRLSCAASGRIFGSYAMGWYRQAPGKERELVASITSSGGSTYYADSVKGRFTISRDNAKNTVYLQMNSLKPEDTAVYYCAAGCAYLDAFYPYGYWGQGTQVTVSS” here?
A: low polyreactivity

Q: With “QVQLVESGGGLVQAGGSLRLSCAASGRIFGSYTMGWYRQAPGKERELVAAISFSGARTRYADSVKGRFTISRDNANNTVYLQMNSLKPEDTAVYYCAARFTGGKYDYWGQGTQVTVSS” as the sequence, how does the “polyreactivity (PSR sort gate)” value read?
A: high polyreactivity

Q: For “QVQLVESGGGLVQAGGSLRLSCAASGRIFGTNAMGWYRQAPGKERELVAAISRSGGSTYYADSVKGRFTISRDNAKNTVYLQMNSLKPEDTAVYYCATDGRHTYYYWGQGTQVTVSS”, which “polyreactivity (PSR sort gate)” value is on record?
A: high polyreactivity

Q: Which “polyreactivity (PSR sort gate)” value does the source give for “QVQLVESGGGLVQAGGSLRLSCAASGRIFGTNAMGWYRQAPRKERELVATITRGGGNTYYADSVKGRFTISRDNAKNTVYLQLNSLKPEDTAVYYCAAYDSVQKYWILGFDYWGQGTQVTVSS” here?
A: low polyreactivity

Q: For “QVQLVESGGGLVQAGGSLRLSCAASGRIFGTYAMGWYIQAPGKERELVAGITWRTASTYYADSVKGRFTISRDNAKNTVYLQMNSLKPEDTAVYYCNADAWVWYYYYSYDYWGQGTQVTVSS”, which “polyreactivity (PSR sort gate)” value is on record?
A: low polyreactivity

Q: For “QVQLVESGGGLVQAGGSLRLSCAASGRIFGTYAMGWYRQAPGKEREFVAAITSSGGNTYYADSVKGRFTISRDNAKNTVYLQMNSLKPEDTGVYYCNARPLYRHYITRFDYWGQGTQVTVSS”, which “polyreactivity (PSR sort gate)” value is on record?
A: high polyreactivity

Q: Which “polyreactivity (PSR sort gate)” value does the source give for “QVQLVESGGGLVQAGGSLRLSCAASGRIFGTYAMGWYRQAPGKERELVAAITQSGGSTYYADSVKGRFTISRDNAKNTVYLQMNSLKPEDTAVYYCKLVKTTSTLGKRRYDYWGQGTQVTVSS” here?
A: high polyreactivity

Q: Which “polyreactivity (PSR sort gate)” value does the source give for “QVQLVESGGGLVQAGGSLRLSCAASGRIFGTYAMGWYRQAPGKERELVAAITRDGSTNYADSVKGRFTISRDNAKNTVYLQMYSLKTEDSAVYYCAAGYLPDPDDYDSWGQGTQVNVSS” here?
A: low polyreactivity

Q: Which “polyreactivity (PSR sort gate)” value does the source give for “QVQLVESGGGLVQAGGSLRLSCAASGRIFGVNAMGGYRQAPGKERELVAAIFSGGSTYYADSVKGRFTISRDNAKNTVYLQMNSLKPEDTAVYYCAKLYTVAIVWSAYDYWGQGTQVTVSS” here?
A: low polyreactivity

Q: For “QVQLVESGGGLVQAGGSLRLSCAASGRIFGVNAMGWYRPAPGKERELVAHIRSSGASTYYADSVKGRFTISRDNAKNTVYLQMNSLKPEDTAVYYCARDYFVDGPGYDYWGQGTQVTVSS”, which “polyreactivity (PSR sort gate)” value is on record?
A: low polyreactivity

Q: Which “polyreactivity (PSR sort gate)” value does the source give for “QVQLVESGGGLVQAGGSLRLSCAASGRIFGVNAMGWYRQAPGKERELVAGITTSGGSTYYADSVKGRFTISRDNAKNTVYLQMNSLKPEDTAVYYFNGLTRRWYSLRSYDYWGQGTQVTVSW” here?
A: high polyreactivity

Q: Which “polyreactivity (PSR sort gate)” value does the source give for “QVQLVESGGGLVQAGGSLRLSCAASGRIFGVNTMGWYRQEPGKEREMVAVIRESDGSTYYADSVKGRFTISRDNAKNTVYLQMNSLKPEDTAVYYCAKDWYRSPSTYEWNSQYGYWGQGTQVTVSS” here?
A: low polyreactivity

Q: Which “polyreactivity (PSR sort gate)” value does the source give for “QVQLVESGGGLVQAGGSLRLSCAASGRIFGVYAMGWYRPAPGKERELVAAITRGASTYYADSVKGRFTISRDNAKNTVYLQMNSLKPEDTAVYYCAAVVSGRYWGYYSWGQGTQVTVSS” here?
A: high polyreactivity

Q: With “QVQLVESGGGLVQAGGSLRLSCAASGRIFGVYAMGWYRQAPGKERELGAALSEGGGSTNYADSVKGRFTISRDNAKNTVYLQMNSLKPEDTAVDYCAATSRTGVRRYYSWGQGTQVTVSS” as the sequence, how does the “polyreactivity (PSR sort gate)” value read?
A: low polyreactivity

Q: Which “polyreactivity (PSR sort gate)” value does the source give for “QVQLVESGGGLVQAGGSLRLSCAASGRIFGVYAMGWYRQAPGKERELVAAIRGGGSTKYADSVKGRFTISRDNAKNTVYLQMNSLKPEDTAVYYCAARKRYYKHDYWGQGTQVTVSS” here?
A: low polyreactivity

Q: For “QVQLVESGGGLVQAGGSLRLSCAASGRIFGVYAMGWYRQAPGKERELVAAISEGGGSTNYADSVKGRFTISRDNAKNTVYLQMNSLKPEDTAVYYCAADRSYYGYGYWGQGTQVTVSS”, which “polyreactivity (PSR sort gate)” value is on record?
A: low polyreactivity
